This is an account of results in paper PMC11848572, “Expanding the Functions of KHSRP Protein: Insights into DNA G‐Quadruplex Binding”.

This data set addresses T1, KHSRP130-503 (four KH domains) (Homo sapiens, UniProt Q92945 130-503).
T1 sequence: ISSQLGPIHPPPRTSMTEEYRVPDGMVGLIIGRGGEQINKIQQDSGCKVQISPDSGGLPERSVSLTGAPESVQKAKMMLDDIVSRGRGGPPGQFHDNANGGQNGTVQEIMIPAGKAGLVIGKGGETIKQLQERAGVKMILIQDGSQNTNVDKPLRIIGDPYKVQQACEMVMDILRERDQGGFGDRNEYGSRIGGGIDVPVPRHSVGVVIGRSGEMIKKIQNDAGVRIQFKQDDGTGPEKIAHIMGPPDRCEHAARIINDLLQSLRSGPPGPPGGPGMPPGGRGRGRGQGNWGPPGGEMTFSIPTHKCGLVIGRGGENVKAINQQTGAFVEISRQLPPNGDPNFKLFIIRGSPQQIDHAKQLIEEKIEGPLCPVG
In words: SPR; 25 C, single-cycle kinetics; SPR at 25 C, 1-20 uM G4 over immobilized protein (buffer not in the material); NMR at 25 C (298 K), protein in 5 mM KH2PO4/K2HPO4 pH 7.0, 20 mM KCl. The conditions noted are these: protein: recombinant, tags: N-terminal His-tag (pET-28a), TEV-cleaved. In general terms: Surface plasmon resonance follows binding to a sensor surface in real time, without labels.

By Kd is commonly meant the constant that tells how readily two partners part at equilibrium. On to GGGCGCGGGAGGAATTGGGCGGG (structured_DNA) [Bcl-2], for which, for the setting “hybrid G4, intramolecular”, the Kd is 2000 ± 980 nM. Turning to TGAGGGTGGGTAGGGTGGGTAA (structured_DNA) [c-Myc], for the setting “parallel G4, intramolecular”, the Kd was determined as 130 ± 25 nM. Still for that read-out and setting: to AGGGAGGGCGCTGGGAGGAGGG (structured_DNA) [c-Kit1] belongs 190 ± 90 nM. With TTGGGTTAGGGTTAGGGTTAGGGA (structured_DNA) [mTel24], the Kd (hybrid G4, intramolecular) stood at 1470 ± 480 nM. With CGGGCGGGCGCTAGGGAGGGT (structured_DNA) [c-Kit2], the Kd (parallel G4, intramolecular) was found to be 56 ± 8 nM.
